Reference: paper PMC5841405
pKd: −log10 of the molar value.

What was measured:
[1] = molecular target: Hook1_(11–443) (human) (UniProt Q9UJC3); assay: ITC; MBP-LIC1FL in the syringe, Hook1_(11–443) in the cell; 30 °C; 20 mM HEPES pH 7.5, 100 mM NaCl, 0.25 mM TCEP
[2] = molecular target: MBP-LIC1FL (human); assay: ITC; protein or peptide in the syringe titrated into the protein in the cell; 20 mM HEPES pH 7.5, 100 mM NaCl, 0.25 mM TCEP; temperature listed in the figures (20 °C for most titrations)
[3] = molecular target: LIC1_(433–458) (human); assay: as above
[4] = molecular target: MBP-LIC1_(1–461) (human); assay: as above

Hook1_(11–166), sequence (Q9UJC3 11-166): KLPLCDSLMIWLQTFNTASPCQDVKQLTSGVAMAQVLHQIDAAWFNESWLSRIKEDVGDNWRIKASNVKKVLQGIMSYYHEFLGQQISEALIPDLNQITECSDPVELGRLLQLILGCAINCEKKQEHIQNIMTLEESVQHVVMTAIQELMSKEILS
Hook1_(11–443) (human), sequence (Q9UJC3 11-443): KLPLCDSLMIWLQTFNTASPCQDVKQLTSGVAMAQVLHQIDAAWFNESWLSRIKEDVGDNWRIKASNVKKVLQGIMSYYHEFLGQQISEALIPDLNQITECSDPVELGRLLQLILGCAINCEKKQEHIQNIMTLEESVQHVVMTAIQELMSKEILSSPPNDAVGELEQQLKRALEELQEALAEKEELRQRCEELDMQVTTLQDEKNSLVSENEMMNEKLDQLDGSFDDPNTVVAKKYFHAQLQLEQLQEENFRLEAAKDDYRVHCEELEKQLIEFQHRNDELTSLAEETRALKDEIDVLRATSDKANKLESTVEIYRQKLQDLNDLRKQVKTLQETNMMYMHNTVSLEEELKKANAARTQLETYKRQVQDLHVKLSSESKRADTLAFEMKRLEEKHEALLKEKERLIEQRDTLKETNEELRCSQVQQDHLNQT

Substance | pKd [1] | stoichiometry N [1] | pKd [2] | stoichiometry N [2] | pKd [3] | pKd [4]
MBP-LIC1FL (natural protein) | 5.09 | 1 |  |  |  | 
Hook1_(1–239)GCN4 (from UniProt Q9UJC3-1 1-239) |  |  | 4.89 | 1 |  | 
Hook1_(11–166) (from UniProt Q9UJC3-1 11-166) (domain or fragment) |  |  | 4.90 | 1 | 4.80 | 5.00
